Test results taken from the RNAGym collection of RNA variant scans (doi:10.1021/acssynbio.7b00057).

B1: Pistol ribozyme (parent)
chain: GGGUCGUUGUUCCAUAAUCGCGUGGAUAUGGCACGCAAGUUUCUACCGGGCACCGUAAAUGUCCGACUGGAGCCGUUCGGGCGGCUAUAAACAGACCUCAGGCCCGAAGCGUGGCGGCACCUGCCGCCGGUGGUAAAAAAGAUCGGAAGAGCACACGUCU

Variants of: B1
Test: aptazyme ON/OFF ratio, guanine; higher = stronger switching; co-transcriptional cleavage with and without guanine

Variant	aptazyme ON/OFF ratio
U7C U8G G9A U10A U11G C12A	1.06
U8A G9A U10A	1.65
U7C U8G G9U U10A U11C C12U C13G	1.11
U7G U8G G9U U10C U11C	2.05
U7G U8C G9A U10C U11C C12G	1.16
U7G G9C U10G U11G C12U	1.32
U7G U8G U10C U11G C12G C13A	1.19
U8C G9C U10G U11C C13U	1.2
U7A G9C U11C C12A C13A	1.06
U7G U8G C13A	1.4
U7G U8A G9A U11C C12U C13U	1.17
U7A U8C G9A U10G C12G C13A	1.27
U7A U8C G9A U11C C13A	1.06
U7G U8A G9C U10G U11A C12A C13G	0.999
U7C U8A G9A U10A U11C C12A C13G	1.12
U7G U8C G9C U11G C12U C13U	1.37
U7A U8G U11C C12G	1.05
G9C U10C U11C C13A	1.02
U7G U8A G9A U10C U11G C12U C13U	1.12
U7G U8C G9A	4.1
U7A U8C G9C U10C	1.18
U8G U10C U11A C12G C13G	1.09
U7C U8A G9A U10A U11C C12G	1.21
U8C G9U U10C U11G C13G	1.2

Variant	aptazyme ON/OFF ratio
U7G U8A G9U U10G C12U C13U	1.13
U7A U8G G9C U10A C12A C13A	1.25
U8G U10G U11C C12G	1.11
U7A U8C G9C U10G C13A	1.1
U7C G9U U10C U11C C12G C13G	1.03
U7A U8G G9U U10C C12A C13G	1.01
U7C G9C U10C U11G C12G C13G	1.11
U7A U8G G9C U10G U11G C12A	1.36
U8C G9U U10G U11G C12U C13U	1.15
U7C U8C G9A U10G C12G	1.22
U7A U8A G9U U10C U11C C12U C13U	1.08
U8G G9A U10C U11G C13U	1.09
U7G U8C U10A U11C C13G	1.04
U7A U8A G9U U10C U11G C12G	1.15
U8A G9A U11C C12U	1.09
U7G U8G G9A U10G C13A	1.39
U7G U8C U10C U11A C12G	1.25
U7A U8A G9A U10G U11G C12A C13U	1.29
U7A G9A U10G C12U C13G	1.14
U8G G9U U10G U11G C13A	1.04
G9U U11A C12A C13A	1.59
U7A U8G G9A U10G C12G C13G	1.17
U7G U8G G9U U10G U11G C13G	1.08
U8C G9U U10G U11A C12G C13G	1.33

Variant	aptazyme ON/OFF ratio
U8C G9U U10C U11A C12U C13U	1.2
U7G U8A G9A U11G C13U	1.21
U7C U8A G9C U10G U11G C12U C13A	1.12
U8C G9A U10A U11C C12U C13A	1.13
U7G U8A U10C U11C C12G C13G	1.06
U7G U8C G9C U10A C12U C13U	1.04
U7G U8A G9C U10A U11A C12A C13A	1.04
U8C G9C U11C C12G	1.26
U8G G9U U10G	1.07
U7C U8G C12U C13A	1.22
U7C G9A U11G C12G C13G	1.21
U7G U8A G9U U11C C12G	1.11
U7G G9U U10A C12A C13A	1.38
U7A U8C U10A U11C C12A C13G	1.17
U7G U8C U11C	1.53
U7C U8C G9U U10C U11C C12G	1.06
U7G U8G G9A U10C U11A C12A C13G	1.15
U7C U8C C12A C13A	1.23
U7G U8G U10A U11A C12U	1.25
U7G U8G U10G U11C C12U	1.24
U7C G9A U11C C12A	1.2
U8A G9C U11C	1.03
G9C U10A U11G C12A C13G	1.17
U7C U8G G9C U11A C12A C13G	1.11

Variant	aptazyme ON/OFF ratio
U7A U8G C13U	1.2
U7C U8A U10C C12U C13A	1.17
U7G G9A U11A C12U	1.41
U8C G9C U10C U11A C12G	1.01
U7A U8G G9U U10G	1.47
U7C G9U U10A C12A C13G	1.14
U7G G9A U10C U11G C12A C13A	1.07
U8C C12A C13U	1.21
U8G G9A U10A U11A C12U C13G	1.09
U7A U8A U10G U11C	1.03
U7A U8G G9C U10A C12U	1.36
U8C U10C U11C C13A	1.08
U7A U8A G9A U10C U11C C12A C13A	1.12
U7C U8C G9U U10A U11A	2.27
U7A G9C U10A U11A C12A C13G	1.07
U8A G9C U10A U11G	1.3
U7G U8A G9A U10G C12G C13U	1.23
U7C U8G G9A U10C U11C C13G	1.01
U8A G9U U10G U11A C12U C13G	1.16
U7C U8C G9A U10A U11C C12U C13G	1.2
U7G U8C U10C U11A C12G C13A	1.13
U7C U8A G9U U10G U11G C12A C13U	1.26
U7A U8G G9U U10C U11A C12A	1.63
U8G G9A U10A U11G C12U C13G	1.25

Variant	aptazyme ON/OFF ratio
U7A U8C G9U U10G U11C C12G C13A	1.22
U7G U8C G9C U11C C13G	1.05
U8C G9C U10A U11G C12A C13G	1.09
U7G U8A G9C U10G U11A C12U	1.02
U8A G9C U10C C12U C13A	1.04
U7A U8C U10A C12G	1.18
U7A U8A G9U U10C C12U C13G	1.15
U7C U8G G9C U10G U11C C12A C13U	1.35
U8A G9A U10A C12U C13U	1.33
G9U U10A U11C	1.33
U7G U8G G9A U10G	1.83
G9U U11A C12U C13U	1.65
U7A U8A U10G U11C C13G	1.11
U7A U10C C12A C13U	1.21
U8A G9C U11A C12G C13U	1.14
U7G G9U U10G C12U C13A	1.28
U7A U8A U10A U11C C12G C13U	1.15
U7C U8A G9C U10A U11A C13U	1.19
U7C U8C G9A U11G C13G	1.28
U7G U11G	1.32
U8A U11G C12A C13A	1.15
U7A G9C U10G C12U	1.2
U8C G9U U11C C12A C13A	1.11
U7C U8C G9U U10G C12A	1.22

Variant	aptazyme ON/OFF ratio
U7C U8A U11A C12U C13A	1.16
U7C U8G G9A U10A U11A C12G C13G	1.21
U7C U8G G9U U10C C13G	1.13
G9A U10A U11A C12U C13A	1.3
U7A U8C G9A U10C U11G C12A C13U	1.14
U7C U8G G9U U10C C12A C13G	1.19
U7C U8G G9A U10C U11A C12G C13U	1.11
U7C U8G G9A U10G U11G C12G	1.27
U7A U8G U10C U11C C12A	1.62
U7C U8C G9A U10A U11C C12G	1.23
U10A U11C C12G	1.15
U10G U11A C12U	1.15
U8A G9A U10G U11C C12G C13G	1.14
U7G U8C U10A	1.33
U7A U8C G9A U10G C13A	1.17
U8A G9U U10C C12U C13G	1.07
U8G G9U U11A C12G	1.25
U7A U8G G9C U10C C12U	1.24
U7A U8G G9U C12A C13G	1.44
U7G U8C G9U U11G C12U C13U	1.35
U7C G9C C12G C13A	1.04
U8G G9C U10G U11C C12A C13U	1.03
U7C G9U U10C U11C C12U C13A	1.02
U8A U10C C12U C13U	1.35

Variant	aptazyme ON/OFF ratio
U7A U8G G9C U10G	1.46
U7C U8A G9A U10C U11A C12A C13A	1.13
U7G U8A U10G U11A C12U	1.23
U7G U8G U10A U11G C12G C13A	1.15
U7A U8A G9U U11C C12G	1.19
U8C G9U U10G U11G C13A	1.14
U7A U8A G9C C13U	1.13
U7A U8G G9A U10C U11G C12G C13A	1.22
U7A U8G G9U U10A U11A	2.58
U8G G9U U10G C12G C13U	1.02
U7G U8C U10C U11C C12A	1.29
U7A U8A U10C U11A C12A	1.24
U7C U8C U10G U11G C12G C13A	1.13
U7A U8G G9U U11G C12U C13U	1.29
U7C U8G G9C U10C C12U C13G	1.08
U7G G9C U11G C12A	1.41
U7G G9C U10G U11C C13U	1.15
G9C U11A C12G	1.47
G9C U10A U11C C12U C13U	1.29
U7A U8G G9C U10C C12G C13G	1.2
U7C U8C G9A U10C U11G	1.24
U7C U8G G9C U10G C12U C13A	1.24
U7A U10A U11A C12G C13G	1.46
